Earlier results in publication PMC9914670.

Legend:
[1] = target: ATP5A1/5B complex (Homo sapiens) (UniProt P25705); test: ELISA
[2] = target: ATP5A1 (F1 ATPase alpha subunit) (Homo sapiens) (UniProt P25705); test: ELISA
[3] = target: ATP5B (F1 ATPase beta subunit) (Homo sapiens) (UniProt P06576); test: ELISA
[4] = target: ATP5A1/5B complex (Homo sapiens) (UniProt P25705); test: QCM
[5] = target: TLR4/MD2 complex (Homo sapiens) (UniProt O00206); test: QCM
Chain of TLR4/MD2 complex (Homo sapiens) (O00206 24-839, chain 1 of 2): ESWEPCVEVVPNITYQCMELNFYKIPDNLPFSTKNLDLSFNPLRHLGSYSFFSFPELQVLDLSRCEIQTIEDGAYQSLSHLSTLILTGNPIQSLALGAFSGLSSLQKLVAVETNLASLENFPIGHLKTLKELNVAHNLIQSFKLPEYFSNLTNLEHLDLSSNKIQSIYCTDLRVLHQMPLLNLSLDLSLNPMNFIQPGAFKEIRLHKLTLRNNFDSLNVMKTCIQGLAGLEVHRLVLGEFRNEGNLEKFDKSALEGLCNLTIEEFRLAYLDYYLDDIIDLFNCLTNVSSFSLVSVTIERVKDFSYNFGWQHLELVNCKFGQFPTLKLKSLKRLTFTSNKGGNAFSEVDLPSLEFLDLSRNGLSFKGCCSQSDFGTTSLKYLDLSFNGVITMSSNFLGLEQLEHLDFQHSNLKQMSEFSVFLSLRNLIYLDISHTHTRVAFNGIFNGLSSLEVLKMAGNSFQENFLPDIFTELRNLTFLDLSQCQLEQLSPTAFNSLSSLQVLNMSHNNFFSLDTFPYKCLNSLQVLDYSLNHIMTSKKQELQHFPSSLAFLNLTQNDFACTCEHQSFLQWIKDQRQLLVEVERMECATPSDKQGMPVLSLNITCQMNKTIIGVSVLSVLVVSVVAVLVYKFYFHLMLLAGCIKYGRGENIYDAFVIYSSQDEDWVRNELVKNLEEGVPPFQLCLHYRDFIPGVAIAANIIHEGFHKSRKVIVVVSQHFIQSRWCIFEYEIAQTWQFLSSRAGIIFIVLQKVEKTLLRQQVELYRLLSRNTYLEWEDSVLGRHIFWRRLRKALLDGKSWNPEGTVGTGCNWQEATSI
Chain of TLR4/MD2 complex (Homo sapiens) (Q9Y6Y9 19-160, chain 2 of 2, further chain): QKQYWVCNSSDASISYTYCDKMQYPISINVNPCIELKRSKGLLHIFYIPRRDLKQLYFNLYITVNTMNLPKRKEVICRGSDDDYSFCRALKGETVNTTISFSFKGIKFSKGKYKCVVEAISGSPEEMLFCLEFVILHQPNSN

Chain of Prothymosin alpha (P06302 2-112): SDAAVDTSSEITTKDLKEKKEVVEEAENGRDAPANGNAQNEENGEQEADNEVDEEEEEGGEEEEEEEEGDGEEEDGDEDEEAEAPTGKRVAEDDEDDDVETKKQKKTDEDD
Chain of ATP5A1/5B complex (Homo sapiens) (P25705 44-553, chain 1 of 2): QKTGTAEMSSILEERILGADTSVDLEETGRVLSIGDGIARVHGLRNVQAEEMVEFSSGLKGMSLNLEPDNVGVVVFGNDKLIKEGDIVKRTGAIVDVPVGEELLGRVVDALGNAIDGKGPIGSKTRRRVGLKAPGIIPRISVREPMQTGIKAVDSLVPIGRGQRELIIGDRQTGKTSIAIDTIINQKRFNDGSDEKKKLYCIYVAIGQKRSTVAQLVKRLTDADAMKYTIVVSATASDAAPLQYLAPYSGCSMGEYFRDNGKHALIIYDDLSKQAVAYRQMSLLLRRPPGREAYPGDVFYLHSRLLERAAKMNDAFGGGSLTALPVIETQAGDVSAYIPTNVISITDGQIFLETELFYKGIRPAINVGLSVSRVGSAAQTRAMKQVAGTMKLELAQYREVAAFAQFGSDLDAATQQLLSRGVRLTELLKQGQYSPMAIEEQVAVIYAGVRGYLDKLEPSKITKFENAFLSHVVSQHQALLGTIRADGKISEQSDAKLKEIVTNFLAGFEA
Chain of ATP5A1/5B complex (Homo sapiens) (P06576 48-529, chain 2 of 2, further chain): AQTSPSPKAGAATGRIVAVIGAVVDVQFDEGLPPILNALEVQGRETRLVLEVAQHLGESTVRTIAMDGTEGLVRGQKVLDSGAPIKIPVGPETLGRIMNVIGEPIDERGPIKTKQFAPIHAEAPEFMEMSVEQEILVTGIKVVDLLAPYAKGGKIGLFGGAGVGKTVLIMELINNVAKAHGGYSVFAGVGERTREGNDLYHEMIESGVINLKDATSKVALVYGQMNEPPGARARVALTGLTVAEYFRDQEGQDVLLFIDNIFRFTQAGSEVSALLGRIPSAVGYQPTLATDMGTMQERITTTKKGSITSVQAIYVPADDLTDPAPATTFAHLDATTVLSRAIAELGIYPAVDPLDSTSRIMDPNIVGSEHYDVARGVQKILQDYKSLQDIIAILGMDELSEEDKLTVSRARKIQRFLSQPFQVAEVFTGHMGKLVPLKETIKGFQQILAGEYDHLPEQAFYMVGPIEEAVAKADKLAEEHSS
Chain of ATP5A1 (F1 ATPase alpha subunit) (Homo sapiens) (P25705 44-553): as the sequence (P25705 44-553, chain 1 of 2) above
Chain of ATP5B (F1 ATPase beta subunit) (Homo sapiens) (P06576 48-529): as the sequence (P06576 48-529, chain 2 of 2, further chain) above

Kd [1]: 55.8 nM | Kd [2]: 68 nM | Kd [3]: 241 nM | Kd [4]: 28.1 nM | Kd [5]: 16100 nM
Substance: Prothymosin alpha (from UniProt P06302)
